Values quoted from earlier work in publication PMC9797105.

Assays:
TARP γ-8 PBM = TARP γ-8 PBM (UniProt Q8WXS5)
[1] = target: TRP channel PBM (Drosophila melanogaster) (UniProt P19334)

UniProt Q8WXS5, sequence (Q8WXS5 whole entry, looked up): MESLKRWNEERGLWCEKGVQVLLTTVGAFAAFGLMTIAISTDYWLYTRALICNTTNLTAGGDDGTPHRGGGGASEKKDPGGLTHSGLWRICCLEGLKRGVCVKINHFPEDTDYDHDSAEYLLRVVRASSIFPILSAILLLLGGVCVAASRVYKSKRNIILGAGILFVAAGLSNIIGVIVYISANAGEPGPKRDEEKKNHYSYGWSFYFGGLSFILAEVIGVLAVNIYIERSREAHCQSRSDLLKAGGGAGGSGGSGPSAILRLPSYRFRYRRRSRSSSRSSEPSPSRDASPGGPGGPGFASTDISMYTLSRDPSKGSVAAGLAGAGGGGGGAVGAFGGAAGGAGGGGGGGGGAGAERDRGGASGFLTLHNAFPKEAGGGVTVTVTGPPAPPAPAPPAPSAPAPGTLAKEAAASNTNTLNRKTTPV

Row | Kd (TARP γ-8 PBM) | Kd [1] | Substance
1 | 40 µM |  | PSD-95 PDZ2 (from UniProt P78352)
2 |  | 0.13 µM | INAD PDZ3 (from UniProt Q24008)
